US20080044413A1 (published 2008)

What was measured:
[1] = biological target: T1, Human EphA2-Fc fusion protein (human, UniProt P29317 24-537); assay: method and format of the clone not stated in this paragraph (framework shuffling)
T1 construct: extracellular domain; Expressed in HEK 293 cells; Biotinylated in the capture ELISAs; also called soluble EphA2 Fc fusion protein; not shown: Fc portion of a human IgG1

cynomolgus EphA2 = biological target: T2, cynomolgus EphA2 (cynomolgus, UniProt Q1KL86 24-976); assay: flow cytometry on cynomolgus EphA2 transfected CHO cells, antibody 10 µg/ml, AlexaFluor 488 anti-mouse or anti-human IgG (H+L)
T2 construct: whole, on cells; also called cynomolgus EphA2 expressed on transfected CHO cells
Description: Subconfluent monolayers of SW480 colon carcinoma or cynomolgus EphA2 transfected CHO cells were quickly trypsinized, washed, counted, plated into 96-well round bottom plates, and stained with 10 μg/ml of a negative control antibody (R347), the anti-human EphA2 murine antibody, EA2 (Coffman 2003), or humanized antibodies, 3F2 and 4H5. Cells were resuspended in AlexaFluor 488 anti-mouse or anti-human IgG H+L (Invitrogen) and then analyzed by flow cytometry using a FACSCalibur (Becton Dickinson).

human EphA2 [2] = biological target: T3, human EphA2 (human, UniProt P29317 24-976); assay: cell-based or functional assay
human EphA2 [3] = biological target: T3, human EphA2; assay: cell-based or functional assay; remark: listed apart in the source
human EphA2 [4] = biological target: T3, human EphA2; assay: cell-based or functional assay; remark: listed apart in the source
human EphA2 [5] = biological target: T3, human EphA2; assay: cell-based or functional assay; remark: listed apart in the source
human EphA2 [6] = biological target: T3, human EphA2; assay: cell-based or functional assay; remark: listed apart in the source
human EphA2 [7] = biological target: T3, human EphA2; assay: cell-based or functional assay; remark: listed apart in the source
[8] = biological target: T1, Human EphA2-Fc fusion protein; assay: SPR, immobilized EphA2-Fc surface; (MT)
From the text: (§1) The formation and dissociation of BiTE/EphA2 complexes was monitored by surface plasmon resonance using a Biacore 3000 system. For this purpose, EphA2 Fc fusion protein was immobilized on a sensor chip with a CM5 carboxymethylated dextran matrix. Optimal immobilization conditions were identified through pH scouting (sodium acetate pH 4.0 to pH 5.5; disodium tetraborate pH 8.5). The optimal pH value was pH 4.0. After immobilization of 1000 RU to flow cell 2, 5,000 RU to flow cell 3 and 400 RU to flow cell 4, excess reactive groups were deactivated by ethanolamine. The affinity of the anti-EphA2 BiTE to immobilized EphA2 was determined by injecting different concentrations of the analyte deimmunized anti-CD3×EA2 VHVL diluted in HBS-EP buffer. To regenerate the surface, REGEN buffer (50 mM NaOH; 20 mM MES; 1 mM NaCl pH 6.4) was used.

[9] = biological target: T1, Human EphA2-Fc fusion protein; assay: SPR, immobilized EphA2-Fc surface; (MedI)
soluble CD3εγ = biological target: T4, soluble CD3εγ (human, UniProt P07766 23-118; P09693 23-103); assay: SPR, immobilized soluble CD3εγ surface; estimate, biphasic association
T4 construct: Amine-coupled to a CM5 chip

[10] = biological target: T1, Human EphA2-Fc fusion protein; assay: SPR (Biacore 3000), EphA2 Fc fusion protein immobilized on CM5, BiTE as analyte
From the text: as §1

[11] = biological target: T1, Human EphA2-Fc fusion protein; assay: method not stated in this paragraph (framework shuffling)
[12] = biological target: T1, Human EphA2-Fc fusion protein; assay: SPR (Biacore 3000), soluble IgG on immobilized EphA2-Fc

T2 sequence (Q1KL86 24-976): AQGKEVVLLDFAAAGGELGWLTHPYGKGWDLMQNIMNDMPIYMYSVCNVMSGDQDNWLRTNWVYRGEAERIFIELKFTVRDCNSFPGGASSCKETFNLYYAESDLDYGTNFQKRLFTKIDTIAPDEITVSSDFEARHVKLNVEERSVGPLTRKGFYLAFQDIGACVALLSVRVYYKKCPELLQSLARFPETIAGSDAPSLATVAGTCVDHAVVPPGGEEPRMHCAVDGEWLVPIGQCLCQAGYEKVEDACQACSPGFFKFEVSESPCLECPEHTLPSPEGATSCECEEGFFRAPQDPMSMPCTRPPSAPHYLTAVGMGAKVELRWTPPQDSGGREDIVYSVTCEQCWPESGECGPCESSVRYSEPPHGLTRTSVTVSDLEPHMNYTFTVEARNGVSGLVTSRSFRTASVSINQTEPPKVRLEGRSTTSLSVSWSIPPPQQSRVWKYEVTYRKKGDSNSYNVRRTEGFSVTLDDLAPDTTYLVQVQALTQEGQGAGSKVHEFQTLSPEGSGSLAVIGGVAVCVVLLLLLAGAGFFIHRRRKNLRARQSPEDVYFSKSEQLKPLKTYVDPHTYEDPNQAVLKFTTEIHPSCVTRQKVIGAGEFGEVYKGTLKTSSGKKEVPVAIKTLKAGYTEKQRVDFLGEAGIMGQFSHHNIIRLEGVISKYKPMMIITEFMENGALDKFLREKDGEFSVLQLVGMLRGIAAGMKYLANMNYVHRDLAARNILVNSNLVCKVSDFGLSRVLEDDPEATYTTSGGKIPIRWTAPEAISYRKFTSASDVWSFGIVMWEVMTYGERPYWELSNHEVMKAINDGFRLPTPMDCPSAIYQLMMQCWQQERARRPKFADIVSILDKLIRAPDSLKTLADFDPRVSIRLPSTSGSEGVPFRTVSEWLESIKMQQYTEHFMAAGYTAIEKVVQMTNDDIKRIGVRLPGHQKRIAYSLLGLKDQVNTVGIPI

B1: humanized anti-human EphA2 mAb 4H5 (antibody, V domains shown)
VH: QVQLLESGGGLVQPGGSLRLSCAASGFTFSSYTMSWVRQAPGQALEWMGTISSGGTYTYYPDSVKGRFTISRDNAKNSLYLQMNSLRAEDTAVYYCAREAIFTYWGRGTLVTVSS
VL: DIQLTQSPSSLSASVGDRVTITCKASQDINNYLSWYQQKPGQAPRLLIYRANRLVDGVPDRFSGSGYGTDFTLTINNIESEDAAYYFCLKYDVFPYTFGQGTKVEIK
notes: Humanized from EA2 by framework shuffling; detected with anti-human IgG; also called humanized clone 4H5
fold increase of affinity compared with chimaeric Fab EA2 [1]: ~20 fold | binding result (cynomolgus EphA2): binds

B2: EphA2-BiTE deimmunized anti-CD3 (VH/VL) × EA2 (VH/VL) (bispecific antibody)
chain: DVQLVQSGAEVKKPGASVKVSCKASGYTFTRYTMHWVRQAPGQGLEWIGYINPSRGYTNYADSVKGRFTITTDKSTSTAYMELSSLRSEDTATYYCARYYDDHYCLDYWGQGTTVTVSSGEGTSTGSGGSGGSGGADDIVLTQSPATLSLSPGERATLSCRASQSVSYMNWYQQKPGKAPKRWIYDTSKVASGVPARFSGSGSGTDYSLTINSLEAEDAATYYCQQWSSNPLTFGGGTKVEIKSGGGGSDVKLVESGGGLVKPGGSLKLSCAASGFTFSSYTMSWVRQTPEKRLEWVATISSGGTYTYYPDSVKGRFTISRDNAKNTLYLQMSSLKSEDTAMYYCTREAIFTYWGQGTLVTVSSGGGGSGGGGSGGGGSDIKMTQSPSSMYASLGERVTITCKASQDINNYLSWFQQKPGKSPKTLIYRANRLVDGVPSRFSGSGSGQDYSLTISSLEYEDMGIYYCLKYDEFPYTFGGGTKLEIKHHHHHH
notes: C-terminal His tag; Purified monomer from CHO cells; also called deimmunized anti-CD3×EA2 (VH/VL); deimmunized anti-CD3-EA2(VH/VL)
EC50 of tumor cell killing, ACHN cells (human EphA2 [2]): 3 ng/mL | EC50 of tumor cell killing, Caki 2 cells (human EphA2 [2]): 30 ng/mL | EC50 of tumor cell killing, DU145 cells (human EphA2 [2]): 0.8 ng/mL | EC50 of tumor cell killing, PC3 cells (human EphA2 [2]): 6 ng/mL | EC50 of tumor cell killing, SW480 cells (human EphA2 [2]): 6 ng/mL | median EC50 of tumor cell killing, SW480 targets, 49 donors (human EphA2 [2]): 24 ng/mL | EC50 of redirected lysis, 51Cr release, A549 (human EphA2 [3]): 123 ng/mL | EC50 of redirected lysis, 51Cr release, A549, second experiment (human EphA2 [3]): 24.8 ng/mL | EC50 of redirected lysis, 51Cr release, MDA MB231 (human EphA2 [3]): 5.8 ng/mL | EC50 of redirected lysis, 51Cr release, MDA MB231, second experiment (human EphA2 [3]): 8.6 ng/mL | EC50 of redirected lysis, A549, PBMC effectors, batch 040507PMa02 (human EphA2 [4]): 32.8 ng/mL | EC50 of redirected lysis, A549, PBMC effectors, batch 040907USy02 (human EphA2 [4]): 10.2 ng/mL | EC50 of redirected lysis, A549, stimulated CD8 T-cells, batch 040507PMa02 (human EphA2 [4]): 3.3 ng/mL | EC50 of redirected lysis, A549, stimulated CD8 T-cells, batch 040907USy02 (human EphA2 [4]): 1.6 ng/mL | EC50 of redirected lysis, MDA MB 231, PBMC effectors, batch 040507PMa02 (human EphA2 [4]): 7.6 ng/mL | EC50 of redirected lysis, MDA MB 231, PBMC effectors, batch 040907USy02 (human EphA2 [4]): 3.2 ng/mL | EC50 of redirected lysis, MDA MB 231, stimulated CD8 T-cells, batch 040507PMa02 (human EphA2 [4]): 0.7 ng/mL | EC50 of redirected lysis, MDA MB 231, stimulated CD8 T-cells, batch 040907USy02 (human EphA2 [4]): 0.5 ng/mL | EC50 of redirected lysis, A549, NK cell-depleted PBMC of Donor #1 (human EphA2 [5]): 20.9 ng/mL | EC50 of redirected lysis, A549, NK cell-depleted PBMC of Donor #2 (human EphA2 [5]): 22.6 ng/mL | EC50 of redirected lysis, A549, NK cell-depleted PBMC of Donor #3 (human EphA2 [5]): 24.8 ng/mL | EC50 of redirected lysis, A549, NK cell-depleted PBMC of Donor #4 (human EphA2 [5]): 28.5 ng/mL | EC50 of redirected lysis, A549, NK cell-depleted PBMC of Donor #6 (human EphA2 [5]): 32.8 ng/mL | EC50 of redirected lysis, A549, NK cell-depleted PBMC of Donor #7 (human EphA2 [5]): 6.6 ng/mL | EC50 of redirected lysis, MDA-MB 231, NK cell-depleted PBMC of Donor #1 (human EphA2 [5]): 15.4 ng/mL | EC50 of redirected lysis, MDA-MB 231, NK cell-depleted PBMC of Donor #2 (human EphA2 [5]): 5.8 ng/mL | EC50 of redirected lysis, MDA-MB 231, NK cell-depleted PBMC of Donor #3 (human EphA2 [5]): 8.6 ng/mL | EC50 of redirected lysis, MDA-MB 231, NK cell-depleted PBMC of Donor #4 (human EphA2 [5]): 23.9 ng/mL | EC50 of redirected lysis, MDA-MB 231, NK cell-depleted PBMC of Donor #5 (human EphA2 [5]): 1.9 ng/mL | EC50 of redirected lysis, MDA-MB 231, NK cell-depleted PBMC of Donor #6 (human EphA2 [5]): 7.6 ng/mL | EC50 of redirected lysis, MDA-MB 231, NK cell-depleted PBMC of Donor #7 (human EphA2 [5]): 3.2 ng/mL | EC 50 of lysis, 51Cr release, B16 F10 EphA2 transfected cells, stimulated human CD8 T-cells, E:T 10:1, 18 h (human EphA2 [6]): 21.7 ng/mL | EC50 of cytotoxic activity, 51Cr release, MDA-MB231 target cells, NK cell-depleted PBMC, E:T 10:1, 18 h; BiTE diluted directly before assay in medium (control) (human EphA2 [7]): 1.9 ng/mL | EC50 of cytotoxic activity, 51Cr release, MDA-MB231 target cells, NK cell-depleted PBMC, E:T 10:1, 18 h; BiTE diluted directly before assay in plasma (control) (human EphA2 [7]): 2 ng/mL | EC50 of cytotoxic activity, 51Cr release, MDA-MB231 target cells, NK cell-depleted PBMC, E:T 10:1, 18 h; BiTE kept 24 h in plasma at 4° C. before the assay (human EphA2 [7]): 2.2 ng/mL | EC50 of cytotoxic activity, 51Cr release, MDA-MB231 target cells, NK cell-depleted PBMC, E:T 10:1, 18 h; BiTE kept 24 h in plasma at 37° C. before the assay (human EphA2 [7]): 3.1 ng/mL | Kd [8]: 45 nM | Kd [9]: 113 nM | Kd (soluble CD3εγ): 400 to 500 nM | Kd [10]: 44.6 nM | koff [10]: 0.0426 s⁻¹ | kon [10]: 956000 M⁻¹ s⁻¹

B3: Humanized 2G6 (antibody, human IgG1, V domains shown)
VH: EVQLVESGGGVVRPGGSLRLSCAASGFTVSDYSMNWVRQAPGKGLEWIGFIRNKANDYTTEYSASVKGRFTISRDDSKNTLYLQMNSLKTEDTAVYYCTTYPRYHAMDSWGQGTMVTVSS
VL: AIQLTQSPSSLSASVGDRVTITCRASQSISNNLHWYLQKPGQSPQLLIYYVFQSISGVPSRFSGSGSGTDFTLTISSLQPEDFATYYCQQSNSWPLTFGGGTKLEIK
notes: Framework-shuffled humanized B233; human IgG1 with human kappa chain in the Biacore analysis
fold loss of affinity compared with chimaeric mAb B233 [11]: ~10 fold | Kd [12]: 3 nM | koff [12]: 0.00019 s⁻¹ | kon [12]: 64000 M⁻¹ s⁻¹
